From patent US20150005230A1, “CYCLODEXTRIN-BASED POLYMERS FOR THERAPEUTIC DELIVERY” (priority 2012, published 2015)

Molecular target: human albumin (Homo sapiens, UniProt P02768)
Test: Release of CPT in reconstituted human albumin (PBS solution)
Assay type: in vitro ADME
Conditions: in the presence of albumin
Procedure: Samples were stored at −80° C. until the analysis.

human albumin, sequence (P02768 25-609): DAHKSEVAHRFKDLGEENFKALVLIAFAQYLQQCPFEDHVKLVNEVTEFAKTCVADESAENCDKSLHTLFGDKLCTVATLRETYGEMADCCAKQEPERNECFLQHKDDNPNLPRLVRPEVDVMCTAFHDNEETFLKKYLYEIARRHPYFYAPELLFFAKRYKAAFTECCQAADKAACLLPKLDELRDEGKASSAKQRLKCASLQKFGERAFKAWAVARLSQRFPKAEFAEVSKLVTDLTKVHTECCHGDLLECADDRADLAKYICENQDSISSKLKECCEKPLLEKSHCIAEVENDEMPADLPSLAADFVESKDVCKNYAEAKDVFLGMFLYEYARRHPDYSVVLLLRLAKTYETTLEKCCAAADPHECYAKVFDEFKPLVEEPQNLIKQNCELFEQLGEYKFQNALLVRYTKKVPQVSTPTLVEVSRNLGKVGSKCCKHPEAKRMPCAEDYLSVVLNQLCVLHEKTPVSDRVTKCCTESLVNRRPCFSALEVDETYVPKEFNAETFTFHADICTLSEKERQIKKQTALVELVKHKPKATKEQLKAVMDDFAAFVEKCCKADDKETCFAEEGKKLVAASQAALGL

Poly(CDDCys-PA-PEG)-Gly-CPT [HG6]
CPT release rate compared with PBS: on the same order of magnitude as in PBS

Poly(CDDCys-PA-PEG)-GlyGlyGly-CPT [HGGG6]
CPT release rate compared with PBS: on the same order of magnitude as in PBS
